Experimental data as given in patent US20050004025A1.

Target: recombinant human a7 nicotinic acetylcholine receptor expressed in Xenopus oocytes (human) (UniProt P36544)
Experiment: cell-based or functional assay

Sequence of recombinant human a7 nicotinic acetylcholine receptor expressed in Xenopus oocytes (human) (P36544 23-502): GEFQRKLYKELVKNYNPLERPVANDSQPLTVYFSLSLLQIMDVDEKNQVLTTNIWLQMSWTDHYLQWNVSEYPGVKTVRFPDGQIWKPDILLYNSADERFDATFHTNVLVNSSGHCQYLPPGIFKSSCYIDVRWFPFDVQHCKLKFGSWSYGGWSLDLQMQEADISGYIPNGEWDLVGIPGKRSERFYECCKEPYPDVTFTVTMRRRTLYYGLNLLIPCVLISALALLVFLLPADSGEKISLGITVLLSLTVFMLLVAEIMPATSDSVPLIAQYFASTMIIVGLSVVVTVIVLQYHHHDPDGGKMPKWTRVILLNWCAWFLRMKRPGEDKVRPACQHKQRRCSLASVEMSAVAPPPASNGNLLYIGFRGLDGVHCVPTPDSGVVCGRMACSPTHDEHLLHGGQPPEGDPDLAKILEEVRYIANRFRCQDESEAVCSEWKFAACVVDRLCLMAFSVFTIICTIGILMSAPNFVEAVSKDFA

recombinant SLURP-1 with C-terminal myc tag and His6 tag (highly purified SLURP-1) (from UniProt P55000 23-103) (ligand)
EC50 of acetylcholine on the receptor after 2.5 min exposure to 200 pM SLURP-1 (FIG. 5C; control 178 µM; n=6 for each data point): 68 µM
EC50 of acetylcholine on the receptor after SLURP-1 treatment (FIG. 5B; control 175 µM): 68 µM
increase of the amplitude of acetylcholine-evoked macroscopic currents at 200 pM SLURP-1, compared with control (two-electrode voltage clamp, oocytes; n=6): 421%
increase of the amplitude of acetylcholine-evoked macroscopic currents at 20 nM SLURP-1, compared with control (two-electrode voltage clamp, oocytes; n=4): 1210%
